Results published in the DeepSol protein solubility set.

Test: soluble on expression in E. coli; label from the status in PepcDB or PDB records

| Sequence | soluble on expression in E. coli |
| --- | --- |
| MELRVAGFLDNSMVNGEGLRSVLFLSGCRRRCPGCQNTDMQDFKYGESVSAEEIFNRIKSNVPIIKGVTFSGGDPLEQAEGLINISKEIKKLGLNIWCYTGYTYEEILKEKDSNKLELLKYIDVLVDGEFKAELTENAPKYAGSSNQRIIRLKLEHHHHHH | not soluble |
| MNDALHIGLPPFLVQANNEPRVLAAPEARMGYVLELVRANIAADGGPFAAAVFERDSGLLIAAGTNRVVPGRCSAAHAEILALSLAQAKLDTHDLSADGLPACELVTSAEPCVMCFGAVIWSGVRSLVCAARSDDVEAIGFDEGPRPENWMGGLEARGITVTTGLLRDAACALLREYNACNGVIYNARCGVHK | soluble |
| MIKIGAHMPISKGFDRVPQDTVNIGGNSFQIFPHNARSWSAKLPSDEAATKFKREMKKHGIDWENAFCHSGYLINLASPKDDIWQKSVELLKKEVEICRKLGIRYLNIHPGSHLGTGEEEGIDRIVRGLNEVLNNTEGVVILLENVSQKGGNIGYKLEQLKKIRDLVDQRDRVAITYDTCHGFDSGYDITKKEGVEALLNEIESLFGLERLKMIHLNDSKYPLGAAKDRHERIGSGFIGEEGFAVFFSFKEIQEVPWILETPGGNEEHAEDIKKVFEIIEKFGIEVD | soluble |
| MAHHHHHHMLTRSERGMCNGRVPTKGLVGFLSGSSTGTEWRDEYLGVNAIVHGPAEKRIGVPNGVTFQGSWAEWPVGDMGQTVPYYFANNKFTLVATVSIHEVPKEDSSPIPLIGVRMNDTSSTVLFALSYTHDRKWLAIPEDAGGVEDLFGWEPHTTYQAVLRMTLDEWTAFVDQREIDRKSYNENLFDSHRISHFYIGGDSNDQSATDGHVTVTNVMLYNEDLYNNELYEPNASKVNIPSLGVEEHPTGQVTSTEVSVVHESKSEEITASCAELNEDDTDKQEEETASMIRCLQRPLPRLTRDHLFLSLPSQRRAQGMTVQRTMSSFTRAKRPSKPRRMKRINRCNGVQTCSHKTHSQRN | not soluble |
| MAPLETIYDESLNKSADSIDDKKWSKLFPRIVSDPDRSSNFMTRAIYVAFSAVLRNRNILGQEYFTKNYITEKLKCMTLCFRNPRSNQIAQLLRNAGDATKDGFLKEVSLVITNNEGDLEAIEVFSMKFIYFENGGVVARLSTDKNGQEDPHFAKLAQLVYEGGDSVRDQMVTIVRSVQFLCTKVLEPLPEEFTANFRLEYTNDAPSNFRIDGFEDSSTFYTLPDDIQSATIGHLRPGCHAANMECWSMLMSDSYEAELTLKRHLDKVSDRHGFNPVNVLYKSFNSEDSDTSLSQATTESVNDQGGNETSPVDDITESLEKAQMSPIQTRPTTRRGADGSKTRSSPYSRSCK | not soluble |
| STLYEKLGGTTAVDLAVDKFYERVLQDDRIKHFFADVDMAKQRAHQKAFLTYAFGGTDKYDGRYMREAHKELVENHGLNGEHFDAVAEDLLATLKEMGVPEDLIAEVAAVAGAPAHKRDVLNQ | soluble |
| MEEGIKMGTKLTSLFKEGEKYQINTKYKELPIKTNLKLLWIDENMKLLGFSIGACVFKGAFTPGTEVYIKINGKYAYGKVFSCSNELVIEFKEIRKEPEFIRRRTVRVEPDPANPVVVELKVDSYSIKTKAKDISETGVGVILEKDKPESAEVIDIIQKNPNSWFDLYVHLPKHGTAHAKGRVRNLSIEEEGIYIRIGFEAEYSKEDREKVRRYVFERQQEIIKSLKML | not soluble |
| MPVLSKLARKMYSRLKSSLLNHFQKGANSSSNPSYNGLTKEEKKRLRHSLAECQLNDVYDPDSAHSSYQHSVSFVTTKPSSRHHQQTIDTSGHAPLAPQEVYLDETSSNSASTFYSDLLASSFSSAGGNSSFTCDYEDTNETSFIMSSGLPALSWNVQYIGSFPISGSYVDNLGRRIDSFQPTTSGGMQSVELSISVLGVKICCEKTVLMSHSLRRVTDISARPDTQNIGYVATEPVGRTYRRLCHVFHCQSLKEVSLKIHSVNVKLPGKSENRKSSTGVWALFAPIADHHIVTPVALFRLNLYNFKIGKNLQNNFEMWAIKIFKMFMGRNIFDQQDPEITIFKVSNSPAEEIENVLRNANQSQVLAAKQPKSAVSTSSMHPTNTASTMTEKRSASTVFLNRFLGKKGSQTVDESGQCKRKRRPVSAVFSSAIHRLSSSTSSVNPKRMSTIEPQAPTREQLLQLQNQMRCAASSPVPEEPRPTDLCAASTTTSTSSVASSSSSNGSSSSTDTSPVPPAPQTALVYDEKLGEWIYPIDQALMTQLDNCSYFVGQPTKDSMVYNLNTQPEGAFVIRYSESKSKCLALSMRVPCSHNPSGISHYLIIRNEQGFRLKLSATKKPFPTLQMMLTHHSVLESHLPCTLHFVQWQKTNFKQLAAMSTVERPLRTFNRHSTALTKIDENRNVTATSTPYRPSGRCGGGIDDFTTPKNRRTRNEINAMRRSHFFDDRQIVL | not soluble |
| MGSDKIHHHHHHMELSSPSKKTTTSPINIPGGNRDNLIIGPHSHSFKTDPFSSNNSSLLSKISTNPSLESPFSSKSLLDCSPVQAVKKSLESEAKTHSLDEETNEQTDVKILNIADFPTDELILMISALLNRIITANDETTDVSQQVSDETEDELLTPILAFYGKNVPEIAVVQYLERIQKYCPTTNDIFLSLLVYFDRISKNYGHSSERNGCAKQLFVMDSGNIHRLLITGVTICTKFLSDFFYSNSRYAKVGGISLQELNHLELQFLILCDFKLLVSVEEMQKYANLLYKFWNDQ | not soluble |
| MPAYKYNRVFLIVMDSVGIGEAPDAADFNDEGAHTLGHIAEHMNGLHMPNMAKLGLGLIEDIKGVEKTEHPLAYYGKLQEASNGKDTMTGHWEIMGLYIDKPFKVFPEGFPDELLQELEKRSGRKIIGNKPASGTAILDELGQEHMETGALIVYTSADSVLQIAAHEEVVPLEELYRICETARELTLDPKYMVGRIIARPFVGEPGQFKRTPNRHDYALKPFDRTVMNELKDCGLDVISIGKISDIYDGEGITSSRRTVSNMDGMDKVIDTLGEDFTGLSFANLVDFDALFGHRRDPEGYGRALEEFDARLPEVFGKMREDDLLIITADHGNDPIHHGTDHTREYVPILAYSKKHKKAQMLPLADTFADIGATIADNFQTNKPKYGKSFLSLLQ | not soluble |
| MCVNFIPPSRGQLREWLGCDPGDGQWPDEAWQDYPAPILTRDGLRFASYGFIPKRHQPAGVRLSTMNARVETIGQLRSYRDAWRNCQLCLVPMQAFYEPCYESGRAVRTKISMADGAPFAVAGLWREWREADGSISLAFTQITIHADGHAVMGRMHRPGDEKRSLAIIPAALYQAWLHCRNPEQARAFLQLFSAEAMRAEGEIADPPRQGSLFDLEHHHHHH | not soluble |
| MGSDKIHHHHHHMEKLQESMYQLIVETSTNLPKDVRRAIQQAKERENAGTRSAMALGTITNNIKMADDNISPICQDTGMPTFKIYTPVGVNQLKLKEAIYNALERATKDGKLRPNSVDSLFGDNSGNNLGPGTPVIKFEQWEKDYIDARLILKGGGCENKNIQYSLPCELEGLGRAGRDLEGIRKCLLHAVYQAQGQGCSAGVIGVGIGGDRTSGYELAKNQLFRTLDDVNPIPELQQLEEYVLENANKLGIGTMGFGGETTLLGCKIGVYNRLPASFYVSVAYNCWAYRRLGVTIHPETGEIMDWLYQEGEDTLEQEVQEKTEQREIVLQAPITEEQIRELRVGDVVTINGMMYTGRDAIHKHLMDNDCPVDLNGQIIYHCGPVVVKDENDNWQIKAAGPTTSIREEPYQGDIMKKFGIRAVIGKGGMGAKTLAALEEHGGVYLNAIGGAAQYYAECIKEVKDVDFLQFGIPEAMWHLRIDGFKAVVTMDSHGNSLHADVDKTSLEKLASFKEPVFK | not soluble |
| MGSDKIHHHHHHMANFAYEVFSTVVAQHTFYQAAATLNVTPSAVSHSINQLEKELGFPLFIRNRSGVELTSDGRQVLPYVQEILNTESNLRQVADNIQGLHSGSVRIGGFSSVCINWLPRIIREFNHKYPDIKISVMQGNFNEITNWAKIGTIDIGFTSMPVNENLLVHSLINDPIYCVTPADFIPENGEFITTDDVADKNFILQQSDYDRDTKLALDHYHVTNNFLRFSIDDQSIISMVESGLGMGILPQLALRKLTGDVNTFSFAEPYNREIALVANKTQAAAPSTAIMIRAIKQFLTKEYPDQMLWQ | not soluble |
| GSVYNTKKVGKRLNIQLKKGTEGLGFSITSRDVTIGGSAPIYVKNILPRGAAIQDGRLKAGDRLIEVNGVDLAGKSQEEVVSLLRSTKMEGTVSLLVFRQEEAFHPREMNA | soluble |
| MMSQQFNVAIFGATGAVGETMLEVLQEREFPVDELFLLASERSEGKTYRFNGKTVRVQNVEEFDWSQVHIALFSAGGELSAKWAPIAAEAGVVVIDNTSHFRYDYDIPLVVPEVNPEAIAEFRNRNIIANPNCSTIQMLVALKPIYDAVGIERINVTTYQSVSGAGKAGIDELAGQTAKLLNGYPAETNTFSQQIAFNCIPQIDQFMDNGYTKEEMKMVWETQKIFNDPSIMVNPTCVRVPVFYGHAEAVHVETRAPIDAEQVMDMLEQTDGIELFRGADFPTQVRDAGGKDHVLVGRVRNDISHHSGINLWVVADNVRKGAATNAVQIAELLVRDYF | not soluble |
| GPGSMLDEVLHSRVVQALLGALVMRELYSDAAVLLASVPPVLDTGGDTSSKDFGGIPSPLLVATRQDTLASLASFRQCVAARRWVEAVQIIDGSATAQSWAQATPLCAMVAFVRLEMDDPKAARALLLPYLASLPEPPSWEALSTAPVEHAQLWDNFTSHYVFSTTLLAKASFMSGSAYLNISAALLQRALRLSPSYAPARLFAEFVLSFEAQQQHVDAAVSASDYPKVLSVTAEMLRMPEVTRLVRAELYLVRTQAQWMRGQPLEVVHEASRCEQCDPQCALAFRLRADAFAMMSRETEAAADLAVAKHLNARVGALFDELQVQRSRRNAAQVEAKAKRNSVPAFKSFPSASAPLRSSATESFCGSTRRSGAQARMSTDTELSPSLRTHYDVLGVSSNASEAEIRRRYRRLTLQLHPDRLVGAAESDRRAALEAFQLLGNAYSVLSDTQLRATYDAGLPGLH | not soluble |
| MPEASHPDHLIRAGRLQADDARLFTPEADGPADQTPPDEPGWLVTLATWKAAAATLRARRHPVGVQLPPDARLDELTGPDGELDRAALSFIAIEFPVYTDGRGYSLAQLLRRRYGWDGELRAVGDVMIDTIHYQARVGFDSFLVKPGHDPQRALAAFRTFSVHYQHTYPAPLAA | not soluble |
| MYDVTIIGAGVSSIFMAYSLAKSNKKVLILDKGKALEDRHCPLDEGKVCNCTTCDKYFGFGGLGKSEGKFNYTNGFGGELEKKVGKEGFLQLMAEVDEILCQFGGSSVSKYSTENSSLTKRAEACGLQMLTTEVRHLGTTLSSNIFQQLYEFLLTKIKIQFHIDVQHILKQEDHFTIDTNQGTVQTKQLVFATGRSGADWLKEMCSSLNISQEQTRVDLGIRVEMKEHQLRSILKDTFETKLSYQGEHFTATTYCMNPKGRIIRKYEEGLVMPDGQNFREQGTGTSNLNFTLFIPSYFPTLKEANVYASSIIKGINQGRDRIVIQRLEDLLKKQPTAENSMEHSRIQPTLQGDYGDLNQEIPQLYIEGLKEFLLRLEQFIQEPIDQHTLLYGIDGKFYAPTIKINNHFETSIHGLFLIGDCSGVTHSLSQAAASGLYVGKYLSDILEHHHHHH | soluble |
| MASRLNEDPEGSRITYVKGDLFACPKTDSLAHCISEDCRMGAGIAVLFKKRFGGVQELLSQQKKSGEVAVLKRDGRYIYYLITKKRASHKPTYENLQKSLEAMKSHCLKNGVTDLSMPRIGCGLDRLQWENVSAILEEVFESTDIKITVYTL | not soluble |
| MGSDKIHHHHHHMMRLIRDLAQRPNPPDVGFQFVTDEEIGGRHGTGRLRDEGWHCDFMLCLEPTDLGIMFEHKGGMWAQLRIPGRAAHGSRPWEGDNPVYRLMQGIQAISERYPPPTGPHDWRTSVTPTEIRMGAGSRNQVPAEALVTFDIRWTADTTPETIQADLAAAFPDAEFISVMASAGLRTDPEHQEVGRIADIVERHIGHTPRFYREHFATDARYYSHIGIPAICLGPVGAGLHSAEEWVEIASLTSLYQIILDYIDTM | not soluble |
